Assay results published in the supplement of paper PMC12338614.

B1: library; numbered along this chain (parent)
chain: MEVVDPQQLGMFTEGELMSVGMDTFIHRIDSTEVIYQPRRKRAKLIGKYLMGDLLGEGSYGKVKEVLDSETLCRRAVKILKKKKLRRIPNGEANVKKEIQLLRRLRHKNVIQLVDVLYNEEKQKMYMVMEYCVCGMQEMLDSVPEKRFPVCQAHGYFCQLIDGLEYLHSQGIVHKDIKPGNLLLTTGGTLKISDLGVAEALHPFAADDTCRTSQGSPAFQPPEIANGLDTFSGFKVDIWSAGVTLYNITTGLYPFEGDNIYKLFENIGKGSYAIPGDCGPPLSDLLKGMLEYEPAKRFSIRQIRQHSWFRKKHPPAEAPVPIPPSPDTKDRWRSMTVVPYLEDLHGADEDEDLFDIEDDIIYTQDFTVPGQVPEEEASHNGQRRGLPKAVCMNGTEAAQLSTKSRAEGRAPNPARKACSASSKIRRLSACKQQ

Variants of: B1
Test: STK11 functional score (HeLa growth suppression), rescaled enrichment; synonymous median = 1, nonsense median = 0 (normalised score)
Conditions: with HeLa; variant type: missense
Protocol: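 Deep mutational scan (TileSeq/POPCode codon randomisation) of full-length codon-optimised STK11 cDNA integrated at a Bxb1 landing pad (AAVS1) in HeLa cells. Restoring functional STK11 suppresses HeLa proliferation. Variant frequencies were measured by NGS before and after about two weeks of growth. The error-corrected enrichment log-ratio was rescaled so that synonymous median = 1 and nonsense median = 0, scores above 1 were compressed, and codon-level and three biological replicate scores were combined; error is the bootstrapped standard error. Scale: synonymous median = 1, nonsense median = 0; below 0.5 = damaging.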

STK11 functional score of substitutions, site by site:
L113: G 0.252; D -0.168; W 0.222; H 0.781; C 1.16; V 0.44; R 0.684; A 0.492; E 1.13; P 0.54; S 0.517; I 0.313; Y 1.67; Q 1.02
V95: L 0.889; H 1.64; Y 1.55; W 0.452; C 0.913; G 0.326; E 0.927; F 0.945; T 1.62; P 1.65; S 1.4; D 1.5; Q 1.46; R 1.02; N 1.6; A 1.28
K96: W 0.729; G 1.31; I 1.08; E 0.384; V 0.667; N 1.14; H 1.33; P 0.38; F 0.801; L 0.614; D 1.27; T 1.05; R 1.18; Y 1.23; Q 0.724; S 1.11
H107: V 0.138; L 0.324; W 0.165; F 0.159; I 0.0231; E 0.776; S 0.803; G 0.812; R 0.205; M 0.523; Y 0.262; T 1.02; A 0.964; P 0.25
E92: L 1.01; N 1.39; A 1.31; W 1.03; Q 1.16; V 1.02; M -0.344; F 1.56; I -0.0755; S 0.979; Y 1.32; R 1.64; T 1.62; C 1.68
G91: I 1.63; A 0.99; L 1.54; V 0.481; M 0.64; P 1.62; K 0.301; C 0.164; H 0.418; Q 1.1; S 0.833; R 1.03; N 1.38; F 0.906
K108: I 1.43; D 0.31; R 1.33; Q 1.39; P 1.35; L 1.1; S 0.866; G 0.95; V 0.939; H 1.26; W 0.834; A 1.25; N 1.29; T 1.33; F 1.04
Q112: R 0.64; I 1.52; S 1.1; W 0.604; A 1.24; F 1.11; Y 1.01; M 0.897; G 0.967; P 1.24; N 1.55; T 1.27; V 1.01; L 1.08
L105: Y 1.36; A 1.32; M 1.18; D 0.494; V 0.842; W 0.397; C 1.53; I 1.57; S 1.29; G 0.712; P 0.588; R 0.653
R104: T 1.3; Y 0.684; S 0.76; G 0.389; V 0.88; L 1.4; K 1.31; D 0.685; I 1.23; Q 1.21; F 1.19
V114: L 0.271; F 1.03; T 1.43; S 0.384; R 0.501; C 0.202; A 0.829; Y 1.59; W 0.805; D 1.17; P 0.872
L102: D 0.469; V 0.912; R 0.466; Q 1.48; H 1.61; E 1.51; W 1.2; S 0.447; F 1.11; T 0.0689; A 0.777; M 0.857; I 1.26; Y 1.2; G 1.07
L101: P 0.045; I 1.06; W -0.0513; M 1.62; Y 1.21; R 1.25; Q 0.894; S 1.43; V 0.836
N94: T 1.27; A 0.173; C 1.1; I 1.14; F 0.728; V 0.637; L 0.89; H 1.35; W 0.162; M 0.437; R 1.37; D 1.31; S 1.27; E 0.862; Y 0.568; G 0.953; Q 1.2; P 1.21
I111: P 1.25; Q 1.66; S 0.535; W -0.448; R 1.16; L 0.392; D 1.6; F 0.365; T 0.687; V 0.948; M 0.886; Y 0.97; G 0.385
R106: A 1.45; P 1.14; S 1.49; Y 1.64; M 1.59; V 1.6; H 1.62; T 1.69; I 1.71; E 1.63; G 0.687; L 1.15; F 1.56
V110: R -0.0313; E -0.206; M 0.358; H 0.958; A 0.184; C 0.955; W 0.328; I 0.703; P 0.481; T 1.51; G 0.297; L 1.23; D 0.338; N 0.651; S 0.535; Y 0.623
A93: R 1.6; S 0.907; L 1.12; W 1.63; V 0.101; P 1.68; G 0.685; H 1.66
I99: M 1.07; Q 0.527; T 1.45; W 0.631; Y 0.0269; F 1.64; P 0.0871; L 0.855; G 0.767; R 0.708; V 0.876; S 0.869; C 1.57; D 0.335; E 1.65
K97: Q 0.688; W 0.46; V 0.998; D 1.27; L 0.76; E 1.42; S 0.724; N 1.21; G 0.699; C 0.937; P 1.1; A 1.47; T 1.32
R103: G 0.667; P 0.985; V 0.764; Y 1.15; W 0.732; A 1.42; S 1.02; C 1.05; H 1.6; K 1.18; T 1.32; I 1; Q 1.27; E 1.68; L 0.918
N109: S 0.492; M 0.647; T 0.928; W 0.336; D 0.477; G 0.374; L 0.662; P -0.121; V 0.132; A 0.625; I 0.256; Q 0.886; R 0.707; K 1.14; H -0.0132
D115: M 1.06; L 1.19; E 1.27; G 0.497
Q100: D 1.57; F 0.976; T 1.3; E 1.25; G 1.17; S 1.1; L 0.857; H 1.28; V 1.39; P 0.999; W 0.696; Y 0.248; A 0.571; I 1.64; R 1.34
E98: Q 0.273; L 0.433; I 0.496; V 0.117; A 0.326; G 0.397; Y 0.182; S 1.49; W 0.16; R 0.172; T 0.259; K 1.12; H 0.617; M 0.133
